Laboratory results reported in article PMC9884874 (Journal for Immunotherapy of Cancer, 2023).

Experiments:
[1] = system: tumor; details: single agent or in combination with anti-PD-1 ab, mouse models; cited from earlier work
[2] = system: Ccn1; assay: Ccn1 mRNA level in cells; type: cell-based, mouse
[3] = system: mouse bone-marrow-derived macrophages (BMDM); assay: uptake of pHrodo-labeled apoptotic thymocytes by BMDM; type: cell-based; details: pHrodo-labeled apoptotic thymocytes as target cells
[4] = system: mouse peritoneal MQ; details: 100 µg/mL CCN1, direct exposure; cited from earlier work
[5] = system: CD8+ T cells; assay: CD8+ T cells co-cultured with MC38 CCM-educated MQ or DC; type: cell-based, mouse
[6] = system: BMDM; assay: recombinant CCN1 treatment of BMDM, CD206+ frequency; type: cell-based, mouse

**Q.** For `COc1cc2nccc(Oc3ccc(NC(=O)c4cn(C(C)C)c(=O)n(-c5ccc(F)cc5)c4=O)cc3F)c2cc1OC` [RXDX-106], which tumor-growth-inhibitory effects [1] is on record?
**A.** excellent tumor-growth-inhibitory effects

**Q.** With `CCCCNc1ncc(-c2ccc(CN3CCOCC3)cn2)c(NC2CCC(O)CC2)n1` (stereo not drawn) [UNC2250] as the molecule, how does the “mRNA level of Ccn1 in BMDM primed with MC38 culture media” value [2] read?
**A.** could not decrease

**Q.** And the “ability of phagocytosis in BMDM” value [3]?
**A.** significantly decreased

**Q.** With `CCOc1ccn(-c2ccc(F)cc2)c(=O)c1C(=O)Nc1ccc(Oc2ccnc(N)c2Cl)c(F)c1` [BMS-777607] as the molecule, how does the tumor-growth-inhibitory effects [1] read?
**A.** excellent tumor-growth-inhibitory effects

B1: CCN1: recombinant CCN1, a secreted matricellular protein, added to macrophages (protein, UniProt O00622 25-381, looked up)
CCN family member 1: TCPAACHCPLEAPKCAPGVGLVRDGCGCCKVCAKQLNEDCSKTQPCDHTKGLECNFGASSTALKGICRAQSEGRPCEYNSRIYQNGESFQPNCKHQCTCIDGAVGCIPLCPQELSLPNLGCPNPRLVKVTGQCCEEWVCDEDSIKDPMEDQDGLLGKELGFDASEVELTRNNELIAVGKGSSLKRLPVFGMEPRILYNPLQGQKCIVQTTSWSQCSKTCGTGISTRVTNDNPECRLVKETRICEVRPCGQPVYSSLKKGKKCSKTKKSPEPVRFTYAGCLSVKKYRPKYCGSCVDGRCCTPQLTRTVKMRFRCEDGETFSKNVMMIQSCKCNYNCPHANEAAFPFYRLFNDIHKFRD
**Q.** Which “differentiation into M1-skewing MQ producing pro-inflammatory cytokines” value [4] does the source give for B1 here?
**A.** promotes differentiation into M1-skewing MQ

**Q.** And the “effect of CCN1 addition on KRCT87-mediated immune-boosting effects” value ([5]; CCN1 addition to DC)?
**A.** could not nullify

**Q.** And the “effect of CCN1 addition on KRCT87-elevated granzyme B, IFN-γ, TNF-α production” value ([5]; MQ educated by MC38-CCM)?
**A.** completely reversed

**Q.** What about the “frequency of M2-skewed MQ” value ([6]; 10–500 ng/mL CCN1) of the same molecule?
**A.** increases

**Q.** And the “frequency of CD206+ BMDM” value ([6]; recombinant CCN1, concentration-dependent and in presence of MC38 CCM)?
**A.** increased
